These are literature values, as cited in US6770020B2 (priority 2001, dated 2004).

The conditions of the data set: cited from earlier work.

In the case of “Gd-DTPA-hydroxypropylpoly(D-lysine) [Gd-DTPA-pdl]”, the membrane permeability entry is “membrane impermeable”.
